Patent US20020077289A1, “Angiostatin and endostatin binding proteins and methods of use” (priority 2000, published 2002)
Entries after “also recorded” stand apart in the source; their conditions may differ. Blank lines part the entries; values can stand above or below the molecule they belong to. Bridges are numbered along the chain shown (N, C = ends). Where no end group is shown, it is not given here.

Legend:
B16-BL6 melanoma cells = assay: B16-BL6 experimental metastasis assay; type: in vivo, C57BL/6J mice; settings: co-injection of 1.5 nmol rhEndostatin and up to 375 nmol control peptide; p>0.11
Description: C57BL/6J mice were injected via the tail vein with 5×10^4 B16-BL6 melanoma cells on day 0. On day 3, groups of five mice received daily subcutaneous doses of either buffer control, 1.5 nmol (1.5 mg/kg/day) of rhEndostatin in combination with 0, 15, 75 or 375 nmol of control or E37 peptide, or control or E37 peptide alone for eleven days. All mice were sacrificed on day 14, and the number of pulmonary surface metastases in each animal counted. Error bars indicate standard deviation of the mean.
C57BL/6J mice (n=8) were injected intravenously (i.v.) with 5×10^4 B16-BL6 cells/mouse. Three days later treatment commenced. 100 μl of citrate-phosphate buffer (66 mM Sodium Phosphate, 17 mM Citric acid, 59 mM NaCl pH 6.2) containing 1.5 nmol of rhEndostatin and 100 μl of PBS containing either 0, 15, 75 or 375 nmol of control or E37 peptide were mixed and injected subcutaneously (s.c.) daily for 11 days. All mice were then sacrificed, their lungs removed and the number of surface metastases counted. Results were analyzed for statistical significance using the 2-tailed Student's t-test.
The following experiment was conducted to determine the interaction of E37 peptide and Endostatin protein. Briefly, the B16BL6 experimental metastasis assay, as known to those of skill in the art and further described in International Patent Application number PCT/US99/11418, was performed as follows. 5×10^4 B16-BL6 cells in 200 μl of PBS were injected into C57BL/6J mice via the tail vein. Three days post injection treatment was started. The injection received by eight groups of mice were: 1) citrate phosphate/PBS buffer, 2) ^30 μg Endostatin protein (in 100 μl PBS), 3) 30 μg Endostatin protein (in 200 μl PBS), 4) 30 μg Endostatin protein plus 50 times molar excess of control peptide (in 200 μl PBS), 5) 30 μg Endostatin protein plus 250 times molar excess of control peptide (in 200 μl PBS), 6) 30 μg Endostatin protein plus 10 times molar excess of E37 peptide (in 200 μl PBS), 7) 30 μg Endostatin protein plus 50 times molar excess of E37 peptide (in 200 μl PBS), and 8) 30 μg Endostatin protein plus 250 times molar excess of E37 peptide (in 200 μl PBS). Doses were administered daily for eleven days posterior to the thoracic cavity subcutaneously. All mice were sacrificed, the lungs removed and the number of surface metastases in each animal were counted under a stereo microscope.

HUVEC microfilaments = assay: Fluorescent staining of formalin fixed endothelial cells with Alexa 488-labeled rhEndostatin; type: cell-based, human; settings: 50-fold molar excess (100 μM) of peptide; 40 μg/ml (2 μM) Alexa-rhEndostatin
Description: (A), HUVECs, (B), HAECs and (C), HMVECs were incubated in the presence of 40 micrograms per milliliter (μg/ml) Alexa 488-labeled rhEndostatin and photographed at 100× magnification under Alexa 488 (green) excitation wavelength. (D) and (E), HUVECs were incubated simultaneously in anti-tropomyosin TM311 ascites fluid and 40 micrograms per milliliter (μg/ml) Alexa 488-labeled rhEndostatin followed by incubation in Alexa 594 conjugated goat anti-mouse IgG (H+L). The same field was photographed under Alexa 488 (green) and Alexa 594 (red) excitation wavelengths at 100× magnification.
HUVECs were incubated in the presence of 40 micrograms per milliliter (μg/ml) Alexa 488-labeled rhEndostatin alone (A), or in the presence of a 50-fold molar excess of control peptide (B), or E37 peptide (C). Cells were photographed using the same exposure times at 100x magnification under Alexa 488 (green) excitation wavelength.
To detect the binding of Alexa-labeled rhEndostatin 1×10^4 HUVEC, HMVEC and HAECs were plated on 1.5% gelatin coated Nalge Nunc Lab Tek II chamber slides (Naperville, Ill.) and fixed in 10% neutral buffered formalin followed by a methanol wash. The chamber slides were incubated in PBS/1% calf serum containing 40 μg/ml (2 μM) of Alexa 488-labeled rhEndostatin (Narum et al., manuscript in preparation) for 1 hr at room temperature. The slides were washed in PBS, coverslips mounted using fluorescent mounting media (Kirkegaard and Perry Laboratories, Gaithersburg, Md.) and cells photographed under Alexa 488 excitation wavelength. Co-localization studies were performed as above except cells were incubated in PBS/1% calf serum containing 1:200 mouse anti-tropomyosin TM311 (Sigma, St. Louis, Miss.) and 40 μg/ml of Alexa 488-labeled rhEndostatin followed by incubation with goat anti-mouse IgG (H+L) conjugated to Alexa 594 (Molecular Probes, Eugene, Oregon). The same fields were photographed under Alexa 488 and Alexa 594 wavelengths. […]

[1] = target: T1, rhTM3 (human tropomyosin isoform 3) (Homo sapiens, UniProt P09493); assay: Surface plasmon resonance (BIAcore) binding to immobilized rhTM3
T1 construct: made in house; host or cells: E. coli BL21 (DE3), pET-21a(+)
T1 sequence (P09493 1-284 isoform P09493-3): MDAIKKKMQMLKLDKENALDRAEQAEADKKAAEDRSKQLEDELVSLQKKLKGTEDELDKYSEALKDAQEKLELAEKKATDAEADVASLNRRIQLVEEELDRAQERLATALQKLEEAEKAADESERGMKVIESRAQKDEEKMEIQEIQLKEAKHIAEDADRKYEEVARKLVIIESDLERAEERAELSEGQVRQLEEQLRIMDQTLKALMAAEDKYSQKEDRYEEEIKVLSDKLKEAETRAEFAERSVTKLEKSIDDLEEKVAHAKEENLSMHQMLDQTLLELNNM
Description: (A), 0, 10, 20, 40, 80 and 160 micromolar (μM) of rhEndostatin were injected at 5 microliters per minute (μl/minute) for 960 seconds through a biosensor flow cell that had been activated and blocked as a control for bulk refractive index and subsequently through a flow cell to which 3200 response units (RU) of rhTM3 had been immobilized. The binding kinetics were recorded and the differences between the two curves plotted for each rhEndostatin concentration. (B), 0, 11.5, 23 and 46 micromolar (μM) of rhAngiostatin were injected at 5 microliters per minute (μl/minute) for 900 seconds over a flow cell containing 3200 RU of rhTM3 as above. Samples were run in duplicate, the data corrected for bulk shift and the average of the 2 curves plotted. (C), Injection of 5 micromolar (μM) of rhEndostatin at 5 microliters per minute (μl/minute) for 240 seconds in the presence of 0, 6, 15, 30 and 45 micromolar (μM) of soluble rhTM3 over a flow cell containing 2000 RU of rhTM3. Samples were run in duplicate, the reference cell values subtracted and the average of each of the 2 curves plotted. The spikes in RU seen at the beginning and end of each injection are due to lag in flow caused by the rhTM3 and reference cells being non-adjacent.
Interactions between purified soluble rhEndostatin and rhTM3 were evaluated by surface plasmon resonance using the BIAcore 3000 (BiaCore, Piscataway, N.J.). The purified rhTM3 was immobilized on the flow cell of a CM-5 BIAcore biosensor chip. The running buffer was 0.01 M HEPES, pH 7.4, 0.15M NaCl and 0.005% polysorbate 20 (v/v). The competition experiments involving soluble rhTM3 were performed using PBS pH 7.4 as running buffer. All measurements were performed at 25° C. To correct for differences in bulk refraction all protein preparations were passed over an activated and blocked flow cell to which no protein had been coupled. Effects due to bulk shift were subtracted from experimental data.
Surface plasmon resonance performed using the BIAcore 3000 (BiaCore, Piscataway, N.J.) was used to assess the kinetics of rhEndostatin/rhTM3 binding. […]

rhEndostatin = target: T2, rhEndostatin (Homo sapiens, UniProt P39060); assay: ELISA of tropomyosin binding to rhEndostatin coated wells; settings: wells coated with 5 μg/ml rhEndostatin or BSA, detection with TM311 anti-tropomyosin
T2 construct: rhEndostatin were produced in P. pastoris and purified to homogeneity; made in house; host or cells: Pichia pastoris
T2 sequence (P39060 1572-1754 limits assumed): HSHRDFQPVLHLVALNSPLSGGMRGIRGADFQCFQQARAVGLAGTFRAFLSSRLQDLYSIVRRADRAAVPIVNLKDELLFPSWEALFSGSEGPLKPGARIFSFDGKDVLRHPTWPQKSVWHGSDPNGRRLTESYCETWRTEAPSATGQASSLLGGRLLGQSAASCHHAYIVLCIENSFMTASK
Description: FIG. 13 provides a graph showing that rhTM3 binds rhEndostatin in vitro. The wells of a 96-well plate were coated with either 5 micrograms/milliliter (μg/ml) of rhEndostatin (closed symbols) or BSA (open symbols) and incubated with increasing amounts of control E. coli lysate (circles) or tropomyosin expressing λ21-1 bacterial lysate (squares). The amount of tropomyosin binding to each well was determined spectrophotometrically following the addition of the TM311 anti-tropomyosin ascites fluid, alkaline phosphatase conjugated anti-mouse IgG and substrate. Error bars indicate standard deviation of the mean.
Plates were coated with 5 μg/ml of BSA or rhEndostatin and blocked. Dilutions of λ21-1 or control lysate were added and incubated for 1 hour at 37° C., followed by incubation with 1:500 diluted anti-tropomyosin TM311 ascites fluid (Sigma, St. Louis, Miss.). Following incubation in 1:5000 diluted anti-mouse IgG (H+L) conjugated to alkaline phosphatase (Promega, Madison, Wis.) wells were developed using Blue Phos Phosphatase Substrate (Kirkegaard and Perry, Gaithersburg, Md.) and the OD635 measured.
In this experiment the wells of a 96 well plate were either coated with 5 μg/ml of Endostatin protein or BSA protein. […] The wells were washed and incubated with anti-tropomyosin antibodies followed by anti-mouse IgG AP conjugated antibodies and developed using KPL Blue Phos microwell phosphatase solution. The OD635 was measured after a one hour incubation at room temperature and the results plotted in FIG. 8.
Recombinant human Endostatin protein and hTM3 were also shown to interact in a capture ELISA (FIG. 8).

[2] = target: recombinant human Endostatin protein (human); assay: cell-based or functional assay

competition for binding of rhEndostatin to immobilized rhTM3 ([1]; 5 μM rhEndostatin with 0-45 μM soluble rhTM3, 2000 RU immobilized rhTM3): competed for the binding of rhEndostatin
binding of tropomyosin to rhEndostatin (rhEndostatin): binds
binding of tropomyosin to rhEndostatin (rhEndostatin; listed as tropomyosin): considerably more tropomyosin bound
Molecule: rhTM3: recombinant human tropomyosin isoform 3 (fibroblast tropomyosin), SEQ ID NO:119; also as λ21-1 bacterial lysate (EKVAHAKEENLSMHQMLDQTLLELNNM)
binding of tropomyosin to rhEndostatin (rhEndostatin; listed as hTM3): higher immunoreactivity in rhEndostatin coated wells than in wells coated with BSA; also recorded: binds

decrease in the anti-tumor activity of rhEndostatin (B16-BL6 lung metastases), 1.5 nmol rhEndostatin co-injected with 15 nmol E37 peptide [2]: 11 percent
decrease in the anti-tumor activity of rhEndostatin (B16-BL6 lung metastases), 1.5 nmol rhEndostatin co-injected with 75 nmol E37 peptide [2]: 30.5 percent
decrease in the anti-tumor activity of rhEndostatin (B16-BL6 lung metastases), 1.5 nmol rhEndostatin co-injected with 375 nmol E37 peptide [2]: 84.5 percent
inhibition of lung metastasis, 1.5 nmol rhEndostatin co-administered with a 250-fold molar excess of E37 peptide [2]: 11%
inhibition of the formation of lung metastasis (B16BL6), 30 µg Endostatin protein plus 10 fold molar excess of E37 peptide [2]: 76%
inhibition of the formation of lung metastasis (B16BL6), 30 µg Endostatin protein plus 50 fold molar excess of E37 peptide [2]: 61%
inhibition of the formation of lung metastasis (B16BL6), 30 µg Endostatin protein plus 250 fold molar excess of E37 peptide [2]: 21%
Molecule: CTHWWHKRCGGGS (disulfide 1-9) [E37 peptide (synthetic, cyclized)]

Continued, molecule first:

Molecule: CSNSDKPKCGGGS (disulfide 1-9 (inferred)) [control peptide, reference compound]
incidence of metastatic lesions on the lungs versus 1.5 nmol rhEndostatin alone (B16-BL6 melanoma cells): statically indistinguishable
inhibition of binding of Alexa-labeled rhEndostatin to HUVEC microfilaments (HUVEC microfilaments): not

B1: rhAngiostatin K1-3: recombinant human Angiostatin kringles 1-3 produced in P. pastoris, used as negative control (protein)
chain: VYLSECKTGNGKNYRGTMSKTKNGITCQKWSSTSPHRPRFSPATHPSEGLEENYCRNPDNDPQGPWCYTTDPEKRYDYCDILECEEECMHCSGENYDGKISKTMSGLECQAWDSQSPHAHGYIPSKFPNKNLKKNYCRNPDRELRPWCFTTDPNKRWELCDIPRCTTPPPSSGPTYQCLKGTGENYRGNVAVTVSGHTCQHWSAQTPHTHNRTPENFPCKNLDENYCRNPDGKRAPWCHTTNSQVRWEYCKIPSCDSSPV
specific binding to immobilized rhTM3 ([1]; negative control, similar concentrations (0-46 μM) passed over the rhTM3 chip): no evidence of specific binding
